Biological target: T1, POPDC1-Myc (Popeye domain-containing protein 1, Myc-tagged) (mouse, UniProt Q9ES83 1-358)
T1 sequence (looked up): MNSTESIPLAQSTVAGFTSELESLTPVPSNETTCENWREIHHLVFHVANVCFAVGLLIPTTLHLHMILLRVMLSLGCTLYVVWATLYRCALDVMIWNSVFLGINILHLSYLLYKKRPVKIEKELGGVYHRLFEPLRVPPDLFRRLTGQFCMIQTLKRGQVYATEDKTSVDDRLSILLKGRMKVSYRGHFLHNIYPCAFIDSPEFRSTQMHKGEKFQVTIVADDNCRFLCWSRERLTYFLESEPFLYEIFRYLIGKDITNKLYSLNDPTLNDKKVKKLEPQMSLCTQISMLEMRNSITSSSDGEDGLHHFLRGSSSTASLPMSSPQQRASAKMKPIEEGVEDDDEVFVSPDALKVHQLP
Assay: co-IP

B1: AC1 (adenylyl cyclase type 1), non-tagged (enzyme)
chain: not shown
- fold Ca2+/calmodulin-stimulated AC activity over IgG controls: 1.59 fold

From publication doi:10.1101/2021.12.21.473719 (bioRxiv, 2021)
